The nature of data set [1]: folding stability dG unfold from trypsin proteolysis; higher = more stable. Put shortly:
(§1)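 Digests were run with trypsin and chymotrypsin at 11 concentrations in threefold dilutions, plus a no-protease condition, on designed mini-proteins in a PA-tagged cDNA display construct. The mini-proteins were under 80 residues, had no cysteine, and were kept only when AlphaFold2 dimer inter-PAE was above 15. After sequencing, Bayesian fitting of the counts gave K50, from which unfolding free energy was derived against a sequence-predicted unfolded-state K50 and a shared folded-state K50, per protease or combined.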

Data set [2] is described as follows: folding stability dG unfold from chymotrypsin proteolysis; higher = more stable. The method in brief: as §1
Data set [3] is described as follows: folding stability dG unfold (combined trypsin and chymotrypsin); higher = more stable. The method in brief:
as §1

± gives the half width of the 95% confidence interval.

On to “SAGWIIRITLPDNGRTIEIDFENGYIIKITSPDEGKPRVIPIPPDDIREWIKELFPGPVRIVEIYPLPKSAG [r5_519_TrROS]”, for which the results for the “folding stability dG unfold” value in data set [1], in data set [2] and in data set [3] were 2.21 ± 0.042 kcal/mol, 3.09 ± 0.05 kcal/mol and 2.69 ± 0.083 kcal/mol, respectively.

With “SAGWIMINSPEDAERIVEELRKLLPPGYKIDVEPMPNGSVMIEFENPEEGREIKIHYDRRNGMYWIEPVSAG [r5_358_TrROS]”, the “folding stability dG unfold” value in data set [1] is 2.58 ± 0.13 kcal/mol; in data set [2], 2.54 ± 0.079 kcal/mol; in data set [3], 2.59 ± 0.11 kcal/mol.

With “SAGWISPKQLRHALRNGKPIKIYMPNPQNKEHAKNWLRQETGLPKEEQKELLKDVKIEPMPPNDPNFKKSAG [r5_368_TrROS]”, the “folding stability dG unfold” value in data set [1] was 0.128 ± 0.33 kcal/mol; in data set [2] it was 0.497 ± 0.47 kcal/mol; in data set [3], -0.0521 ± 0.45 kcal/mol.

Consider “SAGWYIKVEVYYGGKKHTFMIPRKQAKELRKKYPPGDEIPIPFNGRDVEIRVQVIPPPPPSPEDAADNKSAG [r5_669_TrROS]”, for which the “folding stability dG unfold” value in data set [1] stood at 1.83 ± 0.047 kcal/mol; in data set [2], 2.75 ± 0.12 kcal/mol; in data set [3], 2.44 ± 0.17 kcal/mol.

For the sequence “SAGYEWVRELAKKKGFKDIKIEDVQPQRPPDGMEYMHVRIEVQHPGKKREVDIWMRPDNIEEALEQALKSAG [r5_549_TrROS]”, the entries for the “folding stability dG unfold” value in data set [1], in data set [2] and in data set [3] were 0.402 ± 0.096 kcal/mol, 0.993 ± 0.08 kcal/mol and 0.766 ± 0.11 kcal/mol, respectively.

As for “SAHITISIEVPLPNLKGQTPEEAREVAKDKAREIAKMFNPEFGIKVKEVEVEPHPDEGWLKVDITFEPKSAG [r14_310_TrROS]”, the “folding stability dG unfold” value in data set [1] turned out to be 0.998 ± 0.058 kcal/mol; in data set [2], 0.596 ± 0.05 kcal/mol; in data set [3], 0.824 ± 0.2 kcal/mol.

As for “SAHRIMIMFDSPEQAEEIIRKIAEEMGWKPKNIDVEVHPFPVTRPTPDGKKEEHPMYWVTIEIKLKPKKSAG [r14_773_TrROS]”, the “folding stability dG unfold” value in data set [1] was found to be 1.94 ± 0.066 kcal/mol; in data set [2], 2.84 ± 0.096 kcal/mol; in data set [3], 2.37 ± 0.27 kcal/mol.

In the case of “SAHTISIRIPPNMKPITAEELKKEPGYEVKDINVYPNEDGNMYFTIEVEPGMPPKKMDEILERIRDRMGSAG [r14_421_TrROS]”, the “folding stability dG unfold” value worked out at 0.764 ± 0.034 kcal/mol in data set [1], 0.911 ± 0.038 kcal/mol in data set [2] and 0.862 ± 0.059 kcal/mol in data set [3].

For “SAIKIEEIKDVNPENKNIRIKIEMPGGPHEIPIPAKSEMDVEEALDLILDWFERHFPPGHKMRIEEIEISAG [r14_422_TrROS]”, the “folding stability dG unfold” value in data set [1] is 0.886 ± 0.091 kcal/mol; in data set [2], -0.0828 ± 0.13 kcal/mol; in data set [3] it was 0.341 ± 0.1 kcal/mol.

As for “SAIPINLPPGDKVKITFRNPDGSRMEIEFDPENGKWKVKMRPNDGKKQEQTIPAGNLDDLPPGVYSIEPVSA [r9_1110_TrROS]”, the results for the “folding stability dG unfold” value in data set [1], in data set [2] and in data set [3] were 1.08 ± 0.16 kcal/mol, 1.78 ± 0.27 kcal/mol and 1.33 ± 0.26 kcal/mol, respectively.

On to “SAIVLVVADDSPEEAVERARRFAATLRERLVREGYPDADVPIVVEVRAVPPPVPVPVRLPDGDEVVPAPSAG [r14_475_TrMRF]”, for which the results for the “folding stability dG unfold” value in data set [1], in data set [2] and in data set [3] were 0.647 ± 0.1 kcal/mol, 1.7 ± 0.044 kcal/mol and 1.32 ± 0.064 kcal/mol, respectively.

“SAKAELEIKFPGWKVTVEIEDVDPKNDMVKLKAFFRNGWVFTQTVNPDDGKIEIPIIPVKPDPDGKWKFSAG [r14_466_TrROS]”: the entries for the “folding stability dG unfold” value in data set [1], in data set [2] and in data set [3] were 1.21 ± 0.032 kcal/mol, 1.38 ± 0.096 kcal/mol and 1.35 ± 0.091 kcal/mol, respectively.

For the sequence “SAKEEYYKVRIYFPETNEVVEIEAKSEEEALEALKKLLNEPNIVKIEIEKVEVEEEPEEKEYSEEELKSSAG [r14_747_TrROS_Hall]”, the entries for the “folding stability dG unfold” value in data set [1], in data set [2] and in data set [3] were 2.02 ± 0.04 kcal/mol, 2.39 ± 0.046 kcal/mol and 2.32 ± 0.12 kcal/mol, respectively.

“SAKEIASGTFLLDNGATLTVTSIKYDPETGKVSIPVELTVYVPKIDPNDPNKPTIEPFTFKITFTFKVDSAG [r14_888_TrMRF]”: the “folding stability dG unfold” value in data set [1] stood at 2.51 ± 0.073 kcal/mol; in data set [2], 3.78 ± 0.026 kcal/mol; in data set [3], 3.34 ± 0.087 kcal/mol.

“SAKILEIKPLPDGTVIIKIPVDAPEDVDPKEVKILVKSEEGVKEAEILEDGTIDIVVENVKDVKIEIFVESA [r9_722_TrMRF]”: the “folding stability dG unfold” value in data set [1] amounted to 0.305 ± 0.061 kcal/mol; in data set [2], 0.382 ± 0.074 kcal/mol; in data set [3], 0.359 ± 0.1 kcal/mol.

For “SAKITIFFPFDAVKEILDLLKENGVEVNIERHPGNPWYSATITRPDPNGKELPIEIMMFPDHGYVQITLSAG [r14_169_TrROS]”, the “folding stability dG unfold” value in data set [1] worked out at 2.65 ± 0.14 kcal/mol; in data set [2] it was 2.62 ± 0.04 kcal/mol; in data set [3] it was 2.57 ± 0.13 kcal/mol.

For “SAKIVVKLPEKPKVAVIEFPPGMTKEEILKALEEVPGLSEEEREALKKKIEELEALAKNPELLKKLEEESAG [r14_732_TrROS_Hall]”, the “folding stability dG unfold” value in data set [1] was -0.378 ± 0.087 kcal/mol; in data set [2], 1.19 ± 0.051 kcal/mol; in data set [3] it was 0.797 ± 0.12 kcal/mol.

In the case of “SAKKAEEIAEKVEKTIKEAAKEKGYDVNIKVKATKGKDGKVTVYIDFDSPENAKEFIEKLPKSVNVVIASAG [r14_491_TrMRF]”, the “folding stability dG unfold” value amounted to 1.3 ± 0.052 kcal/mol in data set [1], 1.42 ± 0.059 kcal/mol in data set [2] and 1.41 ± 0.11 kcal/mol in data set [3].

For the sequence “SAKKKYIAKVLIEKGDKIIEIEIPGDATVKNPDGKEYTFKVESPEKLKEAIKKLFPEKYPAKILEVKEESAG [r14_41_TrMRF]”, the “folding stability dG unfold” value is 1.18 ± 0.058 kcal/mol in data set [1], 1.73 ± 0.087 kcal/mol in data set [2] and 1.54 ± 0.18 kcal/mol in data set [3].

As to “SAKKPLYLIIVKIGPDGKEIVIVAESEEEARKAAEEELRKLFPDLEIKEIKIIPLEKVKTKEEALELLKSAG [r14_900_TrROS_Hall]”, the “folding stability dG unfold” value in data set [1] is 2.16 ± 0.066 kcal/mol; in data set [2] it was 1.92 ± 0.07 kcal/mol; in data set [3] it was 1.89 ± 0.16 kcal/mol.

With “SAKKTITITKITLTLFNKDGKPVATAEITSIEITYDPKTNTFTITATVKVTLPNGKTFTFKLTITLPVKSAG [r14_609_TrROS_Hall]”, the “folding stability dG unfold” value in data set [1] was 3.91 ± 0.18 kcal/mol; in data set [2], 4.87 ± 0.21 kcal/mol; in data set [3], 4.55 ± 0.41 kcal/mol.

Consider “SAKKTITLTITNEDGSTFTITITDNKITITNKDNGLVAEAEILPDGTIKLKIYNKNGELIAEITLKIKDSAG [r14_213_TrROS_Hall]”, for which the “folding stability dG unfold” value in data set [1] was found to be 3.18 ± 0.32 kcal/mol; in data set [2], 4.32 ± 0.049 kcal/mol; in data set [3] it was 4.09 ± 0.26 kcal/mol.

As to “SAKKVEVKKIKVEVTFYDKNGKKVKKKKATITVVKVDGKYYVTIYDENTGKKYVFEFPSLEEAKKALKKSAG [r14_508_TrROS_Hall]”, the results for the “folding stability dG unfold” value in data set [1], in data set [2] and in data set [3] were 1.91 ± 0.11 kcal/mol, 3.09 ± 0.044 kcal/mol and 2.77 ± 0.33 kcal/mol, respectively.

As for “SAKKVIIEVKSLEELLKAAKEAAKKGEKVEVLVKLKDGYYVKITMEFDKKTKKIKIKKIEIKPIKKEDLSAG [r14_455_TrROS_Hall]”, the “folding stability dG unfold” value is 2.51 ± 0.12 kcal/mol in data set [1], 2.75 ± 0.21 kcal/mol in data set [2] and 2.46 ± 0.38 kcal/mol in data set [3].

Turning to “SAKKVPKIEKIEFIPGPNLVKITIPVPEKDKLLVTIDLKDKKLEFELKKNTSFYFSAKYADIKVSVEKKSAG [r14_96_TrMRF]”, the “folding stability dG unfold” value came out at 2.28 ± 0.16 kcal/mol in data set [1], 3.11 ± 0.14 kcal/mol in data set [2] and 3 ± 0.2 kcal/mol in data set [3].

With “SAKLAEEIAKKILPEVKEVKILKIEVKKDPKSKFKVIKIEMLVKMPKGEKKIKIEIKPGKPKIKIIPLDSAG [r14_397_TrMRF]”, the “folding stability dG unfold” value in data set [1] turned out to be 2.16 ± 0.09 kcal/mol; in data set [2], 2.85 ± 0.1 kcal/mol; in data set [3], 2.67 ± 0.22 kcal/mol.

(Values after the supplement of paper PMC12764529.)
